Measurements: PMC12078616, “A FAN1 point mutation associated with accelerated Huntington’s disease progression alters its PCNA-mediated assembly on DNA”

What was measured:
FAN1 WT [1] = target: T1, FAN1 WT (human, UniProt Q9Y2M0 1-1017); test: cryo-EM; 3.20 Å; EMD-19844; PDB id inconsistent in paper (Data availability says 9EO1; Supp. Table 3 and text imply 9EOA); MST: 25 mM HEPES pH 7.5, 125 mM KCl, 10 mM CaCl2, 5% glycerol, 1 mM TCEP, 0.005% Tween-20, 0.1% BSA, 10 nM Cy5-DNA, 25 °C; SPR buffer not in the material; details: protein: recombinant; tags: His tag removed by PreScission; double flap: 1:2 1:3; 5' flap and 3' poly-T flap
[2] = target: trFAN1 crystallization construct (human, UniProt Q9Y2M0 364-1017, R507H;K794A;del510-518); test: X-ray crystallography; 2.65 Å; MST: 25 mM HEPES pH 7.5, 125 mM KCl, 10 mM CaCl2, 5% glycerol, 1 mM TCEP, 0.005% Tween-20, 0.1% BSA, 10 nM Cy5-DNA, 25 °C; SPR buffer not in the material; details: protein: recombinant; tags: His tag removed by PreScission; double flap: 1:2 1:3; 5' flap 1 nt (pG), 3' flap T4
FAN1 WT [3] = target: T1, FAN1 WT; test: SPR; no PCNA; MST: 25 mM HEPES pH 7.5, 125 mM KCl, 10 mM CaCl2, 5% glycerol, 1 mM TCEP, 0.005% Tween-20, 0.1% BSA, 10 nM Cy5-DNA, 25 °C; SPR buffer not in the material; details: protein: recombinant; tags: His tag removed by PreScission; label: 5'-biotin (SPR); blunt; one unpaired nt in strand 2
PCNA WT;FAN1 WT [4] = target: T2, PCNA WT;FAN1 WT (human;human, UniProt P12004;Q9Y2M0 1-261;1-1017, |); test: SPR; PCNA titrated, 100 nM FAN1; MST: 25 mM HEPES pH 7.5, 125 mM KCl, 10 mM CaCl2, 5% glycerol, 1 mM TCEP, 0.005% Tween-20, 0.1% BSA, 10 nM Cy5-DNA, 25 °C; SPR buffer not in the material; details: protein: recombinant;recombinant; tags: His tag removed by PreScission;His tag removed by PreScission; chain copies: 3;1; label: 5'-biotin (SPR); blunt; one unpaired nt in strand 2
PCNA WT;FAN1 R507H = PCNA WT;FAN1 R507H (human;human, UniProt P12004;Q9Y2M0 1-261;1-1017, |R507H); test: as above; details: protein: recombinant;recombinant; tags: His tag removed by PreScission;His tag removed by PreScission; chain copies: 3;1; label: 5'-biotin (SPR); blunt; one unpaired nt in strand 2
FAN1 WT;PCNA WT = FAN1 WT;PCNA WT (human;human, UniProt Q9Y2M0;P12004 1-1017;1-261, |); test: SPR; FAN1 titrated, 10 µM PCNA WT; MST: 25 mM HEPES pH 7.5, 125 mM KCl, 10 mM CaCl2, 5% glycerol, 1 mM TCEP, 0.005% Tween-20, 0.1% BSA, 10 nM Cy5-DNA, 25 °C; SPR buffer not in the material; details: protein: recombinant;recombinant; tags: His tag removed by PreScission;His tag removed by PreScission; copies: 1;3; label: 5'-biotin (SPR); blunt; one unpaired nt in strand 2
PCNA WT;trFAN1 WT = PCNA WT;trFAN1 WT (human;human, UniProt P12004;Q9Y2M0 1-261;371-1017, |); test: SPR; PCNA titrated, 100 nM trFAN1; MST: 25 mM HEPES pH 7.5, 125 mM KCl, 10 mM CaCl2, 5% glycerol, 1 mM TCEP, 0.005% Tween-20, 0.1% BSA, 10 nM Cy5-DNA, 25 °C; SPR buffer not in the material; details: protein: recombinant;recombinant; tags: His tag removed by PreScission;His tag removed by PreScission; chain copies: 3;1; label: 5'-biotin (SPR); blunt; one unpaired nt in strand 2
PCNA D232A;trFAN1 R507H = PCNA D232A;trFAN1 R507H (human;human, UniProt P12004;Q9Y2M0 1-261;371-1017, D232A|R507H); test: as above; details: protein: recombinant;recombinant; tags: His tag removed by PreScission;His tag removed by PreScission; chain copies: 3;1; label: 5'-biotin (SPR); blunt; one unpaired nt in strand 2
FAN1 WT;PCNA D232A = FAN1 WT;PCNA D232A (human;human, UniProt Q9Y2M0;P12004 1-1017;1-261, |D232A); test: SPR; FAN1 titrated, 10 µM PCNA D232A; MST: 25 mM HEPES pH 7.5, 125 mM KCl, 10 mM CaCl2, 5% glycerol, 1 mM TCEP, 0.005% Tween-20, 0.1% BSA, 10 nM Cy5-DNA, 25 °C; SPR buffer not in the material; details: protein: recombinant;recombinant; tags: His tag removed by PreScission;His tag removed by PreScission; copies: 1;3; label: 5'-biotin (SPR); blunt; one unpaired nt in strand 2
PCNA WT;FAN1 WT [5] = target: T2, PCNA WT;FAN1 WT; test: SPR; 100 nM FAN1; Kd within 4-fold of homoduplex; koff 8.9e-3 s-1, slowest; MST: 25 mM HEPES pH 7.5, 125 mM KCl, 10 mM CaCl2, 5% glycerol, 1 mM TCEP, 0.005% Tween-20, 0.1% BSA, 10 nM Cy5-DNA, 25 °C; SPR buffer not in the material; details: protein: recombinant;recombinant; tags: His tag removed by PreScission;His tag removed by PreScission; chain copies: 3;1; label: 5'-biotin (SPR); blunt; (CAG)2 loop in strand 1

T1 sequence (Q9Y2M0 whole entry): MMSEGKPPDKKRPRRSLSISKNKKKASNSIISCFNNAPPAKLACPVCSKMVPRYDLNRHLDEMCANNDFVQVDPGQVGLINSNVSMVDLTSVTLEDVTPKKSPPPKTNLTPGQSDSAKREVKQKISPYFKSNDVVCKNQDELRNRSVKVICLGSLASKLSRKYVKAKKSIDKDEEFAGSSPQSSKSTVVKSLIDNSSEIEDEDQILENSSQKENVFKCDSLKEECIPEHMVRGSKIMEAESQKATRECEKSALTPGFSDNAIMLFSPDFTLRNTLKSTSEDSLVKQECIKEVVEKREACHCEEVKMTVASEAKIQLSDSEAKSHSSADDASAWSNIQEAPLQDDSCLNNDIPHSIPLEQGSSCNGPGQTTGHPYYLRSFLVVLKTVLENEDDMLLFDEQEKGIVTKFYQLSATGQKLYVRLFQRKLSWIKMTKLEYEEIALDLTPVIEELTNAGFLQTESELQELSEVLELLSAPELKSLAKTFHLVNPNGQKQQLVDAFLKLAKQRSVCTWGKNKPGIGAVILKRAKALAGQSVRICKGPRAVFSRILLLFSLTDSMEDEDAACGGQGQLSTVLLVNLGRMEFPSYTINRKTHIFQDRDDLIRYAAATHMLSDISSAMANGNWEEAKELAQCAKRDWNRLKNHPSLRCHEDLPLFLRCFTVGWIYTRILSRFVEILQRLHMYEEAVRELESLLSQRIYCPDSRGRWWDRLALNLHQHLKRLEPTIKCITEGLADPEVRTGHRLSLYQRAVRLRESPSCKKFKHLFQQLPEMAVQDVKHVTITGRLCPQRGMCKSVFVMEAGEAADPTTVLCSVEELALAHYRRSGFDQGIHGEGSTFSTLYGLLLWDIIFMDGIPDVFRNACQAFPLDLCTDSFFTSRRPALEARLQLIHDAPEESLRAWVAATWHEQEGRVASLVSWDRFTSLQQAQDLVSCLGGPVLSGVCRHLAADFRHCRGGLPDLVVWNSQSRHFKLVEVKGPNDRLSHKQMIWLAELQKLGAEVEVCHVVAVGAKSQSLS
T2 sequence (P12004 whole entry, chain 1 of 2): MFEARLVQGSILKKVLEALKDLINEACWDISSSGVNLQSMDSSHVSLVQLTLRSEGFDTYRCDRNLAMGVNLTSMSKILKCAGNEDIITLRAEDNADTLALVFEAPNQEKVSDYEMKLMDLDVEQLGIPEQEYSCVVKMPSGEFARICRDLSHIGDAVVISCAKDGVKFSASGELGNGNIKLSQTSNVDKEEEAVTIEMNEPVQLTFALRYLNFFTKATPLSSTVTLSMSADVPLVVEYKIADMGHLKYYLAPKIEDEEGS
T2 sequence (Q9Y2M0 whole entry, chain 2 of 2): as the sequence (Q9Y2M0 whole entry) above
trFAN1 crystallization construct, sequence (Q9Y2M0 other isoform, or with tags, fused parts or gaps R507H;K794A;del510-518): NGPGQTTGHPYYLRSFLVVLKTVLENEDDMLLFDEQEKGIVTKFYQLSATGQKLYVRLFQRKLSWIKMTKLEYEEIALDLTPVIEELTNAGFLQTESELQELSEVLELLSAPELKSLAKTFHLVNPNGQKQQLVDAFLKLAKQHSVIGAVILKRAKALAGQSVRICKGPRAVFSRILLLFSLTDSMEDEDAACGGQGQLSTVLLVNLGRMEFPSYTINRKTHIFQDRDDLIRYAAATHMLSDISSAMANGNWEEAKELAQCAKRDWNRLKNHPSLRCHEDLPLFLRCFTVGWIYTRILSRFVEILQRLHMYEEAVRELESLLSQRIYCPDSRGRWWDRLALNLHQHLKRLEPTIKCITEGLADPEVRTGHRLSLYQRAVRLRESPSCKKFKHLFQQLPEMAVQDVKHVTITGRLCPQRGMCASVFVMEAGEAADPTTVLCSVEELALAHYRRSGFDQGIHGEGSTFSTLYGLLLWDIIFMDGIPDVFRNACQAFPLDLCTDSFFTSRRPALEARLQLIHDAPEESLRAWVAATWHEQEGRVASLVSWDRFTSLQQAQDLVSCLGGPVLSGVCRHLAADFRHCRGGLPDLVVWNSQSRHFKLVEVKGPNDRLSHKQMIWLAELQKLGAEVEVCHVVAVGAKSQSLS
FAN1 WT;PCNA D232A, sequence (Q9Y2M0 whole entry, chain 1 of 2): as the sequence (Q9Y2M0 whole entry) above
FAN1 WT;PCNA D232A, sequence (P12004 whole entry D232A, chain 2 of 2): as the sequence (P12004 whole entry, chain 1 of 2) above, with D232A counted along it
FAN1 WT;PCNA WT, sequence (Q9Y2M0 whole entry, chain 1 of 2): as the sequence (Q9Y2M0 whole entry) above
FAN1 WT;PCNA WT, sequence (P12004 whole entry, chain 2 of 2): as the sequence (P12004 whole entry, chain 1 of 2) above
PCNA WT;trFAN1 WT, sequence (P12004 whole entry, chain 1 of 2): as above
PCNA WT;trFAN1 WT, sequence (Q9Y2M0 371-1017, chain 2 of 2): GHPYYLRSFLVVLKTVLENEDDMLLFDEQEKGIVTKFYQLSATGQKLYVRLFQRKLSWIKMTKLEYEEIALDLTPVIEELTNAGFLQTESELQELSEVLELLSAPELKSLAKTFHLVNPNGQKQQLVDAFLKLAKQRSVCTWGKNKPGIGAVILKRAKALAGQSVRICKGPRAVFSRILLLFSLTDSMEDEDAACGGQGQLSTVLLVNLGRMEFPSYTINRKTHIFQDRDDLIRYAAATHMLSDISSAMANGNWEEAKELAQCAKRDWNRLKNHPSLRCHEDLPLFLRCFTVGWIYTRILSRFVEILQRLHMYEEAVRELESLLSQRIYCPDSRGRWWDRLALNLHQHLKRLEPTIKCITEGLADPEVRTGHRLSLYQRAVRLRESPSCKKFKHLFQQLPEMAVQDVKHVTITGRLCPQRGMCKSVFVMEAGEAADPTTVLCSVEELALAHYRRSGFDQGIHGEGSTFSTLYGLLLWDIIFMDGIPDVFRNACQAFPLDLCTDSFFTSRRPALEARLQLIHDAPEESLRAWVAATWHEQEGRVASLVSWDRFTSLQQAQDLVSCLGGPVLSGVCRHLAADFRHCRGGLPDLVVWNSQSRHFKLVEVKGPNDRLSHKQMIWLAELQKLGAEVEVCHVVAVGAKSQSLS
PCNA WT;FAN1 R507H, sequence (P12004 whole entry, chain 1 of 2): as the sequence (P12004 whole entry, chain 1 of 2) above
PCNA WT;FAN1 R507H, sequence (Q9Y2M0 whole entry R507H, chain 2 of 2): as the sequence (Q9Y2M0 whole entry) above, with R507H counted along it
PCNA D232A;trFAN1 R507H, sequence (P12004 whole entry D232A, chain 1 of 2): as the sequence (P12004 whole entry, chain 1 of 2) above, with D232A counted along it
PCNA D232A;trFAN1 R507H, sequence (Q9Y2M0 371-1017 R507H, chain 2 of 2): as the sequence (Q9Y2M0 371-1017, chain 2 of 2) above, with R137H counted along it

B1: 5' flap DNA (cryo-EM substrate) (dsDNA)
DNA 1: CCCGTCCAGGTCTCGTCCGCGCCACTCGTGTCCAGCGTCG
DNA 2: TGCGGACGAGACCTGGACGGG
DNA 3: CGACGCTGGACACGAGTGGCTTTTTTTT
modifications: 5'-phosphate on strand 2
B1: binds (FAN1 WT [1]).

B2: 5'pG1/3'T4 double flap DNA (crystallography) (dsDNA)
DNA 1: AACACGCCTAGACTCCTCA
DNA 2: TTTGAGGAGTCTTTTT
DNA 3: GAGGCGTG
modifications: 5'-phosphate on strand 3
B2: binds [2].

B3: 113 bp homoduplex (dsDNA)
DNA 1: CCGCTTTCTTCCCTTCCTTTGTGCACACGTTCCGAGATATCCTAGCAAGTGATCGTCTATGTAGCTCAAGAGTTCGACTTTCCCCGCTAAGCTCTACATCCGAGGCTCGCCGA
DNA 2: TCGGCGAGCCTCGGATGTAGAGCTTAGCGGGGAAAGTCGAACTCTTGAGCTACATAGTACGATCACTTGCTAGGATATCTCGGAACGTGTGCACAAAGGAAGGGAAGAAAGCGG
B3 showed a Kd (FAN1 WT [3]) of 7 ± 2.4 nM, a Kd (PCNA WT;FAN1 WT [4]) of 1600 ± 900 nM and a Kd (PCNA WT;FAN1 R507H) of 3000 ± 800 nM. For the same binder, the Kd (FAN1 WT;PCNA WT) was 7.2 ± 2.4 nM, the Kd (PCNA WT;trFAN1 WT) was 3900 ± 1300 nM and the Kd (PCNA D232A;trFAN1 R507H) was 14000 ± 5100 nM. The Kd (FAN1 WT;PCNA D232A) was 5.4 ± 1.7 nM.

B4: 113 bp (CAG)2 extrahelical extrusion (dsDNA)
DNA 1: CCGCTTTCTTCCCTTCCTTTGTGCACACGTTCCGAGATATCCTAGCAAGTGATCGTCAGCAGCTATGTAGCTCAAGAGTTCGACTTTCCCCGCTAAGCTCTACATCCGAGGCTCGCCGA
DNA 2: TCGGCGAGCCTCGGATGTAGAGCTTAGCGGGGAAAGTCGAACTCTTGAGCTACATAGTACGATCACTTGCTAGGATATCTCGGAACGTGTGCACAAAGGAAGGGAAGAAAGCGG
B4: binds (PCNA WT;FAN1 WT [5]).
